According to paper PMC4967302:

Columns and labels:
[1] = target: CCR5 in crude membranes from CCR5-expressing HEK 293T cells (UniProt P51681); experiment: radioligand binding; equilibrium saturation binding of 35S-labeled gp120 to crude membranes from CCR5-expressing HEK 293T cells, room temperature, in the presence of 200 nM soluble CD4; non-specific binding measured with 10 µM maraviroc; one-site binding model
[2] = target: CD4 exposed at the surface of HEK 293T cells (UniProt P01730); experiment: flow cytometry on cells

Sequence of UniProt P51681 (P51681 whole entry): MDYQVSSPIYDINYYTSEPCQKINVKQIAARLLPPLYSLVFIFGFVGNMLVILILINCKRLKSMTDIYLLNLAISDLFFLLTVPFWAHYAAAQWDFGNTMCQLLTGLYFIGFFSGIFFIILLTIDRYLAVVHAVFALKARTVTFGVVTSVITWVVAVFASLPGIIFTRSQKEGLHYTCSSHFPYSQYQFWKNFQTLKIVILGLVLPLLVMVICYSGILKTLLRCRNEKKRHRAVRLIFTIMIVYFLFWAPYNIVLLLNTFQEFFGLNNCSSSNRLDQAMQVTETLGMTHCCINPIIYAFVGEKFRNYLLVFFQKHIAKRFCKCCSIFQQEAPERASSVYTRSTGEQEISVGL

Substance: purified soluble wt B gp120 (domain or fragment)
- Kd [1]: 8.4 nM
- Ki [2]: 3.9 nM
